Measurements published in the supplement of paper PMC10567573.

B1: ZNF263 (parent)
chain: RTHTGEKPYKCTLCGENFSHRSNL
B2: TBX5 (parent)
chain: YQNHKITQLKIENNPFAKGFRGSD
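Also: lentivirally expressed fusions sorted by FACS into six bins by GFP to DsRed ratio, PSI derived from sequencing read proportions per bin multiplied by bin number.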

Variants of: B1
Assay: protein stability index of a GFP-peptide fusion (GPS, HEK-293T) (PSI 1-6); higher = more stable
Details: c terminus: a fixed tail appended
In the case of RTHTGEKPYKCTLCGENFSHRSNT [L24T], the protein stability index is reported as 2.4. With RTHTGEKPYKCTLCGENFSHRSNV [L24V] the protein stability index was 2.49. RTHTGEKPYKCTLCGENFSHRSNY [L24Y] showed a protein stability index of 1.78. RTHTGEKPYKCTLCGENFSHRSNS [L24S] gave a protein stability index of 2.52. With RTHTGEKPYKCTLCGENFSHRSNR [L24R] the protein stability index was 1.95. In the case of RTHTGEKPYKCTLCGENFSHRSNW [L24W], the protein stability index is reported as 1.82.

Variants of: B2
Assay: as above
Details: c terminus: a fixed tail appended
YQIHKITQLKIENNPFAKGFRGSD [N3I] gave a protein stability index of 1.97. Work on YQAHKITQLKIENNPFAKGFRGSD [N3A] yielded a protein stability index of 1.94. For YQFHKITQLKIENNPFAKGFRGSD [N3F], the protein stability index was 2.23. YQSHKITQLKIENNPFAKGFRGSD [N3S] showed a protein stability index of 2.3. YQVHKITQLKIENNPFAKGFRGSD [N3V] showed a protein stability index of 2.39. YQYHKITQLKIENNPFAKGFRGSD [N3Y] gave a protein stability index of 1.99. For YQCHKITQLKIENNPFAKGFRGSD [N3C], the protein stability index was 1.75. For YQKHKITQLKIENNPFAKGFRGSD [N3K], the protein stability index was 2.64. For YQRHKITQLKIENNPFAKGFRGSD [N3R], the protein stability index was 2.44. With YQGHKITQLKIENNPFAKGFRGSD [N3G] the protein stability index was 2.26. Variant YQQHKITQLKIENNPFAKGFRGSD [N3Q] has a protein stability index of 2.93. For YQHHKITQLKIENNPFAKGFRGSD [N3H], the protein stability index was 2.29. YQPHKITQLKIENNPFAKGFRGSD [N3P] gave a protein stability index of 2.57. Variant YQWHKITQLKIENNPFAKGFRGSD [N3W] has a protein stability index of 1.89. Work on YQMHKITQLKIENNPFAKGFRGSD [N3M] yielded a protein stability index of 2.16. YQLHKITQLKIENNPFAKGFRGSD [N3L] gave a protein stability index of 2.07. Work on YQDHKITQLKIENNPFAKGFRGSD [N3D] yielded a protein stability index of 2.71. In the case of YQEHKITQLKIENNPFAKGFRGSD [N3E], the protein stability index is reported as 3.33. Work on YQTHKITQLKIENNPFAKGFRGSD [N3T] yielded a protein stability index of 2.42. Variant YQNQKITQLKIENNPFAKGFRGSD [H4Q] has a protein stability index of 2.66. Variant YQNWKITQLKIENNPFAKGFRGSD [H4W] has a protein stability index of 2.89. YQNAKITQLKIENNPFAKGFRGSD [H4A] gave a protein stability index of 2.52. For YQNDKITQLKIENNPFAKGFRGSD [H4D], the protein stability index was 3.52. YQNIKITQLKIENNPFAKGFRGSD [H4I] gave a protein stability index of 2.11. YQNLKITQLKIENNPFAKGFRGSD [H4L] showed a protein stability index of 3.06. Work on YQNCKITQLKIENNPFAKGFRGSD [H4C] yielded a protein stability index of 1.67. YQNGKITQLKIENNPFAKGFRGSD [H4G] gave a protein stability index of 2.57. Variant YQNYKITQLKIENNPFAKGFRGSD [H4Y] has a protein stability index of 2.15. Variant YQNSKITQLKIENNPFAKGFRGSD [H4S] has a protein stability index of 2.62. Variant YQNVKITQLKIENNPFAKGFRGSD [H4V] has a protein stability index of 2.68. YQNTKITQLKIENNPFAKGFRGSD [H4T] gave a protein stability index of 2.44. For YQNFKITQLKIENNPFAKGFRGSD [H4F], the protein stability index was 1.89. With YQNKKITQLKIENNPFAKGFRGSD [H4K] the protein stability index was 2.4. Variant YQNEKITQLKIENNPFAKGFRGSD [H4E] has a protein stability index of 3.19. YQNRKITQLKIENNPFAKGFRGSD [H4R] showed a protein stability index of 2.77. For YQNNKITQLKIENNPFAKGFRGSD [H4N], the protein stability index was 2.87. With YQNPKITQLKIENNPFAKGFRGSD [H4P] the protein stability index was 2.58. With YQNMKITQLKIENNPFAKGFRGSD [H4M] the protein stability index was 2.49. In the case of YQNHKITQLAIENNPFAKGFRGSD [K10A], the protein stability index is reported as 2.91. YQNHKITQLIIENNPFAKGFRGSD [K10I] gave a protein stability index of 1.63. YQNHKITQLFIENNPFAKGFRGSD [K10F] showed a protein stability index of 1.81. Variant YQNHKITQLCIENNPFAKGFRGSD [K10C] has a protein stability index of 2.11. In the case of YQNHKITQLHIENNPFAKGFRGSD [K10H], the protein stability index is reported as 2.2. YQNHKITQLGIENNPFAKGFRGSD [K10G] showed a protein stability index of 1.85. For YQNHKITQLMIENNPFAKGFRGSD [K10M], the protein stability index was 2.23. YQNHKITQLDIENNPFAKGFRGSD [K10D] showed a protein stability index of 2.68. YQNHKITQLEIENNPFAKGFRGSD [K10E] showed a protein stability index of 3.11. Work on YQNHKITQLNIENNPFAKGFRGSD [K10N] yielded a protein stability index of 2.46. YQNHKITQLLIENNPFAKGFRGSD [K10L] showed a protein stability index of 2.03. Work on YQNHKITYLKIENNPFAKGFRGSD [Q8Y] yielded a protein stability index of 1.57. YQNHKITGLKIENNPFAKGFRGSD [Q8G] gave a protein stability index of 2.73. Variant YQNHKITELKIENNPFAKGFRGSD [Q8E] has a protein stability index of 2.97. For YQNHKITTLKIENNPFAKGFRGSD [Q8T], the protein stability index was 2.19. YQNHKITCLKIENNPFAKGFRGSD [Q8C] showed a protein stability index of 1.91. Work on YQNHKITPLKIENNPFAKGFRGSD [Q8P] yielded a protein stability index of 2.41. For YQNHKITNLKIENNPFAKGFRGSD [Q8N], the protein stability index was 2.4. YQNHKITRLKIENNPFAKGFRGSD [Q8R] showed a protein stability index of 1.99. YQNHKITHLKIENNPFAKGFRGSD [Q8H] showed a protein stability index of 2.41. With YQNHKITMLKIENNPFAKGFRGSD [Q8M] the protein stability index was 2.2. For YQNHKITDLKIENNPFAKGFRGSD [Q8D], the protein stability index was 2.75. In the case of YQNHKITLLKIENNPFAKGFRGSD [Q8L], the protein stability index is reported as 1.41. Variant YQNHKITILKIENNPFAKGFRGSD [Q8I] has a protein stability index of 2.06. Work on YQNHKITKLKIENNPFAKGFRGSD [Q8K] yielded a protein stability index of 2.28. In the case of YQNHKITSLKIENNPFAKGFRGSD [Q8S], the protein stability index is reported as 2.13. For YQNHKITFLKIENNPFAKGFRGSD [Q8F], the protein stability index was 1.7. Variant YQNHKITVLKIENNPFAKGFRGSD [Q8V] has a protein stability index of 2.49. In the case of YQNHKITWLKIENNPFAKGFRGSD [Q8W], the protein stability index is reported as 1.57. In the case of YQNHKITALKIENNPFAKGFRGSD [Q8A], the protein stability index is reported as 2.79. Work on YQNHKIEQLKIENNPFAKGFRGSD [T7E] yielded a protein stability index of 3.32. In the case of YQNHKILQLKIENNPFAKGFRGSD [T7L], the protein stability index is reported as 2.3. Variant YQNHKIAQLKIENNPFAKGFRGSD [T7A] has a protein stability index of 2.15. In the case of YQNHKIGQLKIENNPFAKGFRGSD [T7G], the protein stability index is reported as 2.12. Variant YQNHKIPQLKIENNPFAKGFRGSD [T7P] has a protein stability index of 2.85. For YQNHKIMQLKIENNPFAKGFRGSD [T7M], the protein stability index was 2.21. In the case of YQNHKIKQLKIENNPFAKGFRGSD [T7K], the protein stability index is reported as 3.31. Work on YQNHKIDQLKIENNPFAKGFRGSD [T7D] yielded a protein stability index of 2.69. Work on YQNHKIRQLKIENNPFAKGFRGSD [T7R] yielded a protein stability index of 2.48. In the case of YQNHKIVQLKIENNPFAKGFRGSD [T7V], the protein stability index is reported as 2.29. For YQNHKISQLKIENNPFAKGFRGSD [T7S], the protein stability index was 2.46. With YQNHKIIQLKIENNPFAKGFRGSD [T7I] the protein stability index was 2.5. YQNHKIQQLKIENNPFAKGFRGSD [T7Q] showed a protein stability index of 2.63. With YQNHKIWQLKIENNPFAKGFRGSD [T7W] the protein stability index was 3.51. Work on YQNHKINQLKIENNPFAKGFRGSD [T7N] yielded a protein stability index of 2.59. Variant YQNHKICQLKIENNPFAKGFRGSD [T7C] has a protein stability index of 1.94. For YQNHKIFQLKIENNPFAKGFRGSD [T7F], the protein stability index was 1.61. With YQNHKIHQLKIENNPFAKGFRGSD [T7H] the protein stability index was 2.77. YQNHKIYQLKIENNPFAKGFRGSD [T7Y] gave a protein stability index of 2.37. YNNHKITQLKIENNPFAKGFRGSD [Q2N] showed a protein stability index of 3.48.
